3 molecules from paper PMC8266636, “Rrp1 translocase and ubiquitin ligase activities restrict the genome destabilising effects of Rad51 in fission yeast” (Nucleic Acids Research, 2020) can be followed below.

In series [1] the target is T1, Rrp1;Rad51 (Schizosaccharomyces …, UniProt O13762;P36601 1-897;1-365, |).
T1 sequence 1: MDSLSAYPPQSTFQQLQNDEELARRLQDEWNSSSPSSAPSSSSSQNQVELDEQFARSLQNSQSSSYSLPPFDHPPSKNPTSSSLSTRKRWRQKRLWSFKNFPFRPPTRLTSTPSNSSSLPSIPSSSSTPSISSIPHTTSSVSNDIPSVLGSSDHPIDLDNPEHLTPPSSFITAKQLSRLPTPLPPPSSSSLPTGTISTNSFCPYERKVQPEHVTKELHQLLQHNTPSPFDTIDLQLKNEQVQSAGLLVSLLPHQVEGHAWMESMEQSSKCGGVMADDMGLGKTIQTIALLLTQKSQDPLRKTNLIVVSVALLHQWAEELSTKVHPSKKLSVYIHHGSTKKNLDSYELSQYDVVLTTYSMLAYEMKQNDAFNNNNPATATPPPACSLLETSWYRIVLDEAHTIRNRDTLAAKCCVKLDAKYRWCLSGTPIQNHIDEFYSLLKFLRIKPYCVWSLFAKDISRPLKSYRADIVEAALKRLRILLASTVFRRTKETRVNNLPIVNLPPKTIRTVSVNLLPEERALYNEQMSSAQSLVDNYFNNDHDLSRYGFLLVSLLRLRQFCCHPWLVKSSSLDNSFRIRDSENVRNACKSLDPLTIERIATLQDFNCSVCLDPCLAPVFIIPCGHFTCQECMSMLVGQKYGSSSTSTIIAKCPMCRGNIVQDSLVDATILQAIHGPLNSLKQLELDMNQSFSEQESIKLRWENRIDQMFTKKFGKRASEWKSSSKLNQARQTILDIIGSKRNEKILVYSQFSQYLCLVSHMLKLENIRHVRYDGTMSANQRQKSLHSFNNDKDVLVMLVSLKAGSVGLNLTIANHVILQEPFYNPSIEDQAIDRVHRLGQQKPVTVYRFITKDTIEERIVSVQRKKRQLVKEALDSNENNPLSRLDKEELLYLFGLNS
T1 sequence 2: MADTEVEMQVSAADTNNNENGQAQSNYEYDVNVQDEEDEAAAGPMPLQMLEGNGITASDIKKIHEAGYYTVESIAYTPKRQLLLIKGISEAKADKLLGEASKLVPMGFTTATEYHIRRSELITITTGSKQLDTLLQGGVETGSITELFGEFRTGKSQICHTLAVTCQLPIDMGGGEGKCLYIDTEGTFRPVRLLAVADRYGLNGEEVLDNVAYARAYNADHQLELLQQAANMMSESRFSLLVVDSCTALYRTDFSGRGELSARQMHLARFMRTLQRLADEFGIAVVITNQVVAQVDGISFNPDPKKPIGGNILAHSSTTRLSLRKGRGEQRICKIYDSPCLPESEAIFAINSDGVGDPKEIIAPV
The experiment in a line: fluorescence anisotropy; 2 mM ATP; 3.5 mM Mg2+; scavenger PhiX174 ssDNA; EMSA: 25 mM HEPES pH 7.5, 1 mM DTT, 60 mM KCl, 2 mM ATP, 3.5 mM MgCl2, 5% glycerol, 37 C, 0.2% glutaraldehyde; anisotropy: 30 mM HEPES pH 7.5, 1 mM DTT, 50 mM NaCl, 100 mM KCl, 2 mM ATP, 8 mM PC, 8 U/ml CPK, 3.5 mM MgCl2, 2.5% glycerol, 37 C. To be noted: protein: recombinant;recombinant; tags: 3xFLAG (methods: N-terminal 3xFLAG and C-terminal GST, but construct named GST-Rrp1-FLAG); GST removed by HRV-3C;; single strand.

Series [2] has as its target T2, Rrp1-FLAG (purified recombinant) (S. pombe, UniProt O13762 1-897).
T2 construct: Rrp1 of Schizosaccharomyces pombe, rrp1+ in pGEX-6P; only the former was removed'; read here as GST-Rrp1-3xFLAG; GST removed with HRV-3C protease; also called purified Rrp1-FLAG; FLAG-tagged Rrp1; source: E. coli Rosetta, from pGEX-6P, purified (GSH sepharose, HiTrap Heparin, Resource Q, HiTrap SP); not shown: GST, N-terminal, cleaved; 3xFLAG, C-terminal, kept
T2 sequence (looked up): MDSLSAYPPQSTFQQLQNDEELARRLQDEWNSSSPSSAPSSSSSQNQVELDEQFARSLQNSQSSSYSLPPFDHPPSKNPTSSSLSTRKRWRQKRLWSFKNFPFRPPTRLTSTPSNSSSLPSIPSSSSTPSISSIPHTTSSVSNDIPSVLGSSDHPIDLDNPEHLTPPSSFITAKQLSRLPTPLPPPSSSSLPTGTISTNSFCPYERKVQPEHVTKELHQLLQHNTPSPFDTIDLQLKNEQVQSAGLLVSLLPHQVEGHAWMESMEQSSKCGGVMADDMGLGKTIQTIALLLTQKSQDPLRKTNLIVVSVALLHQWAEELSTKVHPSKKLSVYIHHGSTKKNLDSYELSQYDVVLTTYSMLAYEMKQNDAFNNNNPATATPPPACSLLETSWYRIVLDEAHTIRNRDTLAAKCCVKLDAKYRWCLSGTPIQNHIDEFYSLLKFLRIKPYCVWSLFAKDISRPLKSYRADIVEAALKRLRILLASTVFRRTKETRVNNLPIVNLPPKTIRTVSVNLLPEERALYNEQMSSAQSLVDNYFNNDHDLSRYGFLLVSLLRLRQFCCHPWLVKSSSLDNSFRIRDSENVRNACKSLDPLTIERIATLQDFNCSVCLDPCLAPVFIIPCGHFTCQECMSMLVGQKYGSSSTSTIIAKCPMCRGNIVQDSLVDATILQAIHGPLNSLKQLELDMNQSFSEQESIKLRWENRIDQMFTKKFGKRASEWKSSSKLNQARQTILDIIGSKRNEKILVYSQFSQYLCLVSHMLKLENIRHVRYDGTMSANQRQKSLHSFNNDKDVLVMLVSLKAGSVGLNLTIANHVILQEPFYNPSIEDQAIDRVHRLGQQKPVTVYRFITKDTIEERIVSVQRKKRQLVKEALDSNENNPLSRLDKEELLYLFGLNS
The experiment in a line: co-IP; purified Rad51 and FLAG-tagged Rrp1 (250 nM each) in IP buffer (35 mM Tris-HCl pH 7.5, 1 mM DTT, 100 mM NaCl, 3.5 mM MgCl2, 0.1% NP-40, 5% glycerol), 30 min at 30°C; precipitated with anti-FLAG M2 affinity gel 2 h at 4°C, eluted with 3xFLAG peptide, western blot. To be noted: both partners purified.

Series [3] addresses T3, Rad51 (Schizosaccharomyces pombe, UniProt P36601 1-365).
T3 sequence: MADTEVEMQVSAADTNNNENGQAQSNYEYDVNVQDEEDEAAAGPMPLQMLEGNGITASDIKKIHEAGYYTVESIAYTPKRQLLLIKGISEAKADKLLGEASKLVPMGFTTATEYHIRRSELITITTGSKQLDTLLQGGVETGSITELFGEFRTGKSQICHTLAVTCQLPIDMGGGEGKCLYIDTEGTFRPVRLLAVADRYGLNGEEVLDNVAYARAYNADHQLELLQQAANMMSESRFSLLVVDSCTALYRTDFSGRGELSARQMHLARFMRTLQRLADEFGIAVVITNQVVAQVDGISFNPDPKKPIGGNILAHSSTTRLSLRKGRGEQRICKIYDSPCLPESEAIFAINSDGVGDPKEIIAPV
The experiment in a line: fluorescence anisotropy; 2 mM ATP; 3.5 mM Mg2+; 6 uM Rad51; scavenger ssDNA for koff; EMSA: 25 mM HEPES pH 7.5, 1 mM DTT, 60 mM KCl, 2 mM ATP, 3.5 mM MgCl2, 5% glycerol, 37 C, 0.2% glutaraldehyde; anisotropy: 30 mM HEPES pH 7.5, 1 mM DTT, 50 mM NaCl, 100 mM KCl, 2 mM ATP, 8 mM PC, 8 U/ml CPK, 3.5 mM MgCl2, 2.5% glycerol, 37 C. To be noted: protein: recombinant; label: 5'-TAMRA on 16A(-); blunt. A general note: Polarisation of emitted light reports the rotation of a fluorescent probe.

B1: oligo-dT 72-mer (ssDNA)
DNA: TTTTTTTTTTTTTTTTTTTTTTTTTTTTTTTTTTTTTTTTTTTTTTTTTTTTTTTTTTTTTTTTTTTTTTTT
As to B1, the binding result in series [1] is on record as “binds”.

B2: Rad51 (purified) (natural protein, S. pombe, UniProt P36601 1-365, looked up)
chain: MADTEVEMQVSAADTNNNENGQAQSNYEYDVNVQDEEDEAAAGPMPLQMLEGNGITASDIKKIHEAGYYTVESIAYTPKRQLLLIKGISEAKADKLLGEASKLVPMGFTTATEYHIRRSELITITTGSKQLDTLLQGGVETGSITELFGEFRTGKSQICHTLAVTCQLPIDMGGGEGKCLYIDTEGTFRPVRLLAVADRYGLNGEEVLDNVAYARAYNADHQLELLQQAANMMSESRFSLLVVDSCTALYRTDFSGRGELSARQMHLARFMRTLQRLADEFGIAVVITNQVVAQVDGISFNPDPKKPIGGNILAHSSTTRLSLRKGRGEQRICKIYDSPCLPESEAIFAINSDGVGDPKEIIAPV
notes: Rad51 of Schizosaccharomyces pombe; also called purified Rad51
In the case of B2, in series [2], the binding result was “binds”.

B3: 16A(-)/16A(+) 83-mer dsDNA (dsDNA)
DNA 1: AAATGAACATAAAGTAAATAAGTATAAGGATAATACAAAATAAGTAAATGAATAAACATAGAAAATAAAGTAAAGGATATAAA
DNA 2: TTTATATCCTTTACTTTATTTTCTATGTTTATTCATTTACTTATTTTGTATTATCCTTATACTTATTTACTTTATGTTCATTT
With B3, the binding result in series [3] is “binds”.
